The results in this text go back to publication PMC10501626 (PLOS Pathogens, 2023).

The test deals with T1, LGP2 regulatory domain (LGP2 RD, residues 537–678), wild type (human, UniProt Q96C10 537-678, biotinylated (biotin added at 3:1 molar ratio) for biolayer interferometry).
T1 construct: also called LGP2 RD WT; WT
T1 sequence (looked up): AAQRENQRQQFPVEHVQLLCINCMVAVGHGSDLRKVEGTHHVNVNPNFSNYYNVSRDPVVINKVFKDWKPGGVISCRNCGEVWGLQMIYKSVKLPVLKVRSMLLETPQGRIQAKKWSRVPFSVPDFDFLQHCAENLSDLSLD
Description: BLI. To be noted: both partners purified.

B1: TBEV NS5 protein, purified (natural protein)
chain: GGSEGDTLGDLWKRKLNGCTKEEFFAYRRTGILETERDKARELLKRGETNMGLAVSRGTAKLAWLEERGYATLKGEVVDLGCGRGGWSYYAASRPAVMSVKACAIAGKGHETPKMVTSLGWNLIKFRAGMDVFSMQPHRADTIMCDIGESNPDAVVEGERTRKVILLMEQWKNRNPTATCVFKALAPYRPEVTEALHRFQLQWGGGLVRTPFSRNSTHEMYYSTAITGNIVNSVNIQSRKLLARFGDQRGPTRVPELDLGVGTRCVVLAEDKVKEKDVQERISALREQYGETWHMDREHPYRTWQYWAATACANRVGGALINGVVKLLSWPWNAREDVVRMAMTDTTAFGQQRVFKEKVDTKAQEPQPGTKVIMRAVNDWILERLARKSKPRMCSREEFIAKVKSNAALGAWSDEQNRWSSAKEAVEDPAFWQLVDEERERHLAGRCAHCVYNMMGKREKKLGEFGVAKGSRAIWYMWLGSRFLEFEALGFLNEDHWASRGSSGSGVEGISLNYLGWHLKGLSTLEGGLFYADDTAGWDTKVTNADLEDEEQLLRYMEGEHKQLAATIMQKAYHAKVVKVARPSRDGGCIMDVITRRDQRGSGQVVTYALNTLTNIKVQLIRMMEGEGVIEASDAHNPRLLRVERWLRDHGEERLGRMLVSGDDCVVRPVDDRFSGALYFLNDMAKTRKDIGEWDHSVGFSNWEEVPFCSHHFHELVMKDGRTLIVPCRDQDELVGRARVSPGCGRSVRETACLSKAYGQMWLLSYFHRRDLRTLGLAICSAVPVDWVPAGRTTWSIHASGAWMTTEDMLDVWNRVWILDNPFMHSKEKIAEWRDVPYLPKSHDMLCSSLVGRKERAEWAKNIWGAVEKVRKMIGQEKFKDYLSCMDRHDLHWESKLESSII
For the molecule B1, the Kd stood at 1.2 ± 0.8 µM.
